Measurements published in patent US20250340623A1 (AC IMMUNE, published 2025).
Where no end group is shown, it is not given here. The star is where a group is joined. Biotin = O=C1N[C@H]2[C@H](CS[C@H]2CCCCC(=O)*)N1; Ahx = NCCCCCC(=O)O

B1: ACI-7067-1102G3-Ab1 (antibody, V domains shown)
VH: EVKLEESGGGLVQPGGSMKLSCAASGFTFSDAWMNWVRQSPEKGLEWVAEIRNKAHNHATYYAESVKGRFTISGDDSKSSVYLQMNNLRAEDTGIYYCTIYSYWGQGTLVTVSA
VL: SIVMTQTPKFLLVSAGDRVTITCKASQSVTKDVAWYQQKPGQSPKLLIYSTSNRYSGVPDRFTGSGYGTDFTFTINTVQTEDLAVYFCQQDYRIPYTFGGGTKLEIK
notes: mouse hybridoma mAb; VH/VL only; also called 1102G3F2
B2: ACI-7067-1108H1-Ab1 (antibody, V domains shown)
VH: EVKLVESGGGLVQPGGSMKLSCTASGFTFSDAWMNWVRQSPEKGLEWVAEIRNKAHNHATNYAESVKGRFTISGDDSKSSVYLQMNNLRAEDTGIYYCTIYSFWGQGTLVTVSA
VL: SIVMTQTPKFLLVSAGDRVTITCKASQSVTNYVAWYHQKPGQSPKLLIYSASNRYSGVPDRFTGSGYGTDFTFTINTVQTEDLAVYFCQQDYRIPYTFGGGTKLEIK
notes: mouse hybridoma mAb; VH/VL only; also called 1108H1E1
B3: ACI-7079-2503C6-Ab1 (antibody, V domains shown)
VH: DVQLQESGPGLVKPSQSLSLTCSVTGYSITSGYYWNWIRLFPGNKLEWLGYINYDGSNNFNPSLKNRISITRDTSKNQFFLKLNSVTSEDTATYFCLRGDWDWGQGTLVTVSA
VL: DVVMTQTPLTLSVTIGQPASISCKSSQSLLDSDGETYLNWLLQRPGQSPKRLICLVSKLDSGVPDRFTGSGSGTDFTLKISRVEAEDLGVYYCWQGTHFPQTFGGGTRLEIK
notes: mouse hybridoma mAb; VH/VL only; also called 2503C6H9
B4: ACI-7067-1101C8-Ab2 (antibody, V domains shown)
VH: EVQLVESGGGLVQPKGSLKLSCAASGFSFNIYAMNWVRQAPGKGLEWVARIRSKSNNYATYYADSVKDRFTISRADSESMLYLQMNNLKTEDTAMYYCVRVGLRFYAMDYWGQGTSVTVSS
VL: DVLMTQTPLSLPVSLGDQASISCRSSQSIVHSNGNTYLEWYLQKPGQSPKLLIYKVSNRFSGVPDRFSGSGSGTDFTLKISRVEAEDLGVYYCFQGSQGPLTFGAGTKLELK
notes: mouse hybridoma mAb; VH/VL only; also called 1101C8F7
B5: ACI-7079-2501G2-Ab2 (antibody, V domains shown)
VH: EVQLVESGGGLVQPKGSLKLSCAASGFNFNTYAMNWVRQAPGKGLEWVARIRTKSNNFATYYAHSVKDRFTISRDDSESMLYLQMNNLKTEDTAMYYCVRQGLAYYAMDYWGQGTSVTVSS
VL: DVLMTQTPLSLPVSLGDQVSISCRSSQTIVHSNGNTYLEWYLQKPGQSPKLLIYKVSNRFSGVPDRFSGSGSGTDFTLKISRVEAEDLGVYYCFQGSQGPLTFGAGTKLELK
notes: mouse hybridoma mAb; VH/VL only; also called 2501G2E5
B6: ACI-7067-1107G5-Ab2 (antibody, V domains shown)
VH: QVQLQQPGTELVKPGASVKLSCKASGYTFTKYWMHWVKQRPGQGLEWIGNINPNNGDTNYNEKFKSKATLTVDKSSSTAYMQLSSLTSEDSAVYYCAIAMDYWGQGTSVTVSS
VL: DIQMTQSPSSLSAFLGERVSLTCRASQDIGNNLNWFQQEPDGTIKRLIYATSSLDSGVPKRFSGSRSGSEYSLTISSLESEDFVDYYCLQFGSSPLTFGAGTKLELK
notes: mouse hybridoma mAb; VH/VL only; also called 1107G5B6
B7: ACI-7067-1111B12-Ab2 (antibody, V domains shown)
VH: QVQLLQPGTALVMPGASVKLSCKASGYTFTTYWMHWVKQRPGQGLEWIGNINPINGGSNYNEKFKSKASLTVDKSSSTAYMQLSSLTSEDSAVYYCVIAMDYWGQGTSVTVSS
VL: DIQMTQSPSSLSASLGERVSLTCRASQDIGISLNWFQQEPDGTIKRLIYATSSLDSGVPKRFSGNRSGSDYSLTISSLESEDFADYYCLQFASSPLTFGAGTKLELK
notes: mouse hybridoma mAb; VH/VL only; also called 1111B12H10
B8: ACI-7067-1112H8-Ab2 (antibody, V domains shown)
VH: EVKLEESGGGLVQPGGSMKLSCAASGFTFTDAWMNWVRQSPEKGLEWIAEIRNKAHNYATYYAESVKGRFDISGDDSKSSVYLQMNNLRVEDTGIYYCTIYSYWGPGTLVTVSA
VL: SIVMTQTPKFLLMSPGDRVTMTCTASQSVSNYVAWYQQKPGQSPKLLIYSASNRFTGVPDRFTGSGYGTDFTFTINTVQTEDMAVYFCQQDYTSPYTFGGGTKLEIK
notes: mouse hybridoma mAb; VH/VL only; also called 1112H8C12
B9: ACI-7067-1116F2-Ab1 (antibody, V domains shown)
VH: DVQLQESGPGFVKPSQSLSLTCSVTGYSITRGFYWNWIRQFPGNKLEWMGYISDDGNSNYNPSLKNRISITRDTFKNQVFLRLNSVTTEDTATYYCTRGDLLWGQGTTLTVSS
VL: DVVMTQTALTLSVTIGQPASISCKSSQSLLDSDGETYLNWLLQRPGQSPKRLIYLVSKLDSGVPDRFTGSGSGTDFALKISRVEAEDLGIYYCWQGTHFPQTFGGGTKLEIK
notes: mouse hybridoma mAb; VH/VL only; also called 1116F2A2
B10: ACI-7079-2511B3-Ab3 (antibody, V domains shown)
VH: DVQLQESGPGLVKPSQSLSLTCSVTGFSITSYYYWNWIRQFPGNKLEWMAYISYDGSNNYNPSLKNRISITRDTSKNQFFLKLNSVTTEDTATYYCTRGDWDWGQGTLVTVSA
VL: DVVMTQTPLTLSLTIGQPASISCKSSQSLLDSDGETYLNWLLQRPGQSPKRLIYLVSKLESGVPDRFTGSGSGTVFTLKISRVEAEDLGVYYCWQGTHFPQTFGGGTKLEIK
notes: mouse hybridoma mAb; VH/VL only; also called 2511B3B12
B11: ACI-7079-2506E2-Ab2 (antibody, V domains shown)
VH: QVQLQQSGPELVRPGASVKISCKASGYAFSNSWMNWVKQRPGKGLEWIGRIFPGDGDTYYDGKFKGKVKLTTDKFSNTAYMQLRSLTSEDSAVYFCARWGGTNDEWFAHWGQGTLVTVSV
VL: DIVLTQSPASLTVSLGQRATISCRASQSVSTSRNSYMHWYQQKPRQPPKLLIKYASNLESGVPARFSGSGSGADFTLNIHPVEEEDTATYYCQHSWDIPLTFGTGTKLELS
notes: mouse hybridoma mAb; VH/VL only; also called 2506E2G4

Experiments:
64-78aa [1] = biological target: T1, 64-78aa; assay: indirect ELISA on biotinylated 15-mer peptide, supernatant 1/100
T1 construct: also called alpha-synuclein peptide 64-78
T1 peptide: {Biotin-Ahx}-TNVGGAVVTGVTAVA
Method: (§1) Serum-free supernatants were harvested from stable hybridomas. The supernatants containing antibodies of interest were then screened by an indirect ELISA assay to determine epitopes. Epitopes were first determined using a library of 15-mer peptides covering the entire sequence of human alpha-synuclein protein, spanning amino acids (aa) 1-140 with 9aa offset and […] overlap. […] Briefly, streptavidin-coated ELISA plates were blocked overnight at 4° C. […] Plates were washed with PBS/0.05% Tween®20 and then incubated with the hybridoma supernatants at 1/100 dilution for 1 hour at 25° C.

46-60aa [2] = biological target: T2, 46-60aa; assay: indirect ELISA on biotinylated 15-mer peptide
T2 construct: also called alpha-synuclein peptide 46-60
T2 peptide: {Biotin-Ahx}-EGVVHGVATVAEKTK
Method: as §1

118-132aa [3] = biological target: T3, 118-132aa; assay: indirect ELISA on biotinylated 15-mer peptide
T3 peptide: {Biotin-Ahx}-VDPDNEAYEMPSEEG
Method: as §1

127-140aa = biological target: T4, 127-140aa; assay: indirect ELISA on biotinylated 15-mer peptide
T4 peptide: {Biotin-Ahx}-MPSEEGYQDYEPEA
Method: as §1

82-96aa [4] = biological target: T5, 82-96aa; assay: indirect ELISA on biotinylated 15-mer peptide
T5 construct: also called alpha-synuclein peptide 82-96
T5 peptide: {Biotin-Ahx}-VEGAGSIAAATGFVK
Method: as §1

alpha-synuclein seeds = alpha-synuclein seeds (UniProt P37840 1-140); assay: cell-based or functional assay
82-96aa [5] = biological target: T5, 82-96aa; assay: indirect ELISA on biotinylated 15-mer peptide, supernatant 1/100
Method: as §1

1-15aa = biological target: T6, 1-15aa; assay: indirect ELISA on biotinylated 15-mer peptide
T6 construct: also called alpha-synuclein peptide 1-15
T6 peptide: {Biotin-Ahx}-MDVFMKGLSKAKEGV
Method: as §1

10-24aa = biological target: T7, 10-24aa; assay: indirect ELISA on biotinylated 15-mer peptide
T7 construct: also called alpha-synuclein peptide 10-24
T7 peptide: {Biotin-Ahx}-KAKEGVVAAAEKTKQ
Method: as §1

91-105aa = biological target: T8, 91-105aa; assay: indirect ELISA on biotinylated 15-mer peptide
T8 peptide: {Biotin-Ahx}-ATGFVKKDQLGKNEE
Method: as §1

1-14aa = biological target: T9, 1-14aa; assay: indirect ELISA on biotinylated 15-mer peptide
T9 construct: also called alpha-synuclein peptide 1-14
T9 peptide: MDVFMKGLSKAKEG-biotin
Method: as §1

118-132aa [6] = biological target: T3, 118-132aa; assay: indirect ELISA on biotinylated 15-mer peptide, supernatant 1/100
Method: as §1

64-78aa [7] = biological target: T1, 64-78aa; assay: indirect ELISA on biotinylated 15-mer peptide
Method: as §1

46-60aa [8] = biological target: T2, 46-60aa; assay: indirect ELISA on biotinylated 15-mer peptide, supernatant 1/100
Method: as §1

Binder	binding result (64-78aa [1])	binding result (46-60aa [2])	binding result (118-132aa [3])	binding result (127-140aa)	binding result (82-96aa [4])	aggregation half-time (τ1/2) of seeded alpha-synuclein aggregation, ThT; no antibody 26.9 hours (alpha-synuclein seeds)	binding result (82-96aa [5])	binding result (1-15aa)	binding result (10-24aa)	binding result (91-105aa)	binding result (1-14aa)	binding result (118-132aa [6])	binding result (64-78aa [7])	binding result (46-60aa [8])
B1	binds	no binding (tested: supernatant 1/100)	no binding (tested: supernatant 1/100)	no binding (tested: supernatant 1/100)	no binding (tested: supernatant 1/100)									
B2	binds	no binding (tested: supernatant 1/100)	no binding (tested: supernatant 1/100)	no binding (tested: supernatant 1/100)	no binding (tested: supernatant 1/100)	28 h								
B3		no binding (tested: supernatant 1/100)	no binding (tested: supernatant 1/100)	no binding (tested: supernatant 1/100)		22.5 h	binds	no binding (tested: supernatant 1/100)	no binding (tested: supernatant 1/100)	no binding (tested: supernatant 1/100)	no binding (tested: supernatant 1/100)			
B4		no binding (tested: supernatant 1/100)		no binding (tested: supernatant 1/100)	no binding (tested: supernatant 1/100)	64 h						binds	no binding (tested: supernatant 1/100)	
B5		no binding (tested: supernatant 1/100)		no binding (tested: supernatant 1/100)	no binding (tested: supernatant 1/100)			no binding (tested: supernatant 1/100)	no binding (tested: supernatant 1/100)	no binding (tested: supernatant 1/100)	no binding (tested: supernatant 1/100)	binds		
B6			no binding (tested: supernatant 1/100)	no binding (tested: supernatant 1/100)	no binding (tested: supernatant 1/100)								no binding (tested: supernatant 1/100)	binds
B7			no binding (tested: supernatant 1/100)	no binding (tested: supernatant 1/100)	no binding (tested: supernatant 1/100)								no binding (tested: supernatant 1/100)	binds
B8	binds	no binding (tested: supernatant 1/100)	no binding (tested: supernatant 1/100)	no binding (tested: supernatant 1/100)	no binding (tested: supernatant 1/100)									
B9		no binding (tested: supernatant 1/100)	no binding (tested: supernatant 1/100)	no binding (tested: supernatant 1/100)			binds						no binding (tested: supernatant 1/100)	
B10		no binding (tested: supernatant 1/100)	no binding (tested: supernatant 1/100)	no binding (tested: supernatant 1/100)			binds	no binding (tested: supernatant 1/100)	no binding (tested: supernatant 1/100)	no binding (tested: supernatant 1/100)	no binding (tested: supernatant 1/100)			
B11		no binding (tested: supernatant 1/100)		no binding (tested: supernatant 1/100)	no binding (tested: supernatant 1/100)			no binding (tested: supernatant 1/100)	no binding (tested: supernatant 1/100)	no binding (tested: supernatant 1/100)	no binding (tested: supernatant 1/100)	binds		
